Legend:
[1] = target: H14 HA A/mallard duck/Astrakhan/263/1982, recombinant (influenza A virus)
[2] = target: H2 HA A/Singapore/1/1957, recombinant soluble trimer (influenza A virus)
[3] = target: H5 HA A/Indonesia/05/2005 (H5N1), recombinant (influenza A virus)
[4] = target: H7 HA A/Shanghai/2/2013 (H7N9), recombinant uncleaved trimer (influenza A virus)
[5] = target: H3 HA A/Hong Kong/1/1968 (H3N2), recombinant soluble trimer (influenza A virus) (UniProt Q91MA7)
[6] = target: H15 HA A/shearwater/Western Australia/2576/1979, recombinant (influenza A virus)
[7] = target: H9 HA A/Hong Kong/1073/99, recombinant (influenza A virus)
[8] = target: H12 HA A/duck/Alberta/60/1976, recombinant (influenza A virus)

| Substance | EC50 relative to wild type rFluA-20 [1] [fold] | EC50 [2] [µg/mL] | EC50 relative to wild type rFluA-20 [3] [fold] | EC50 relative to wild type rFluA-20 [4] [fold] | EC50 [5] [µg/mL] | EC50 [6] [µg/mL] | EC50 relative to wild type rFluA-20 [7] [fold] | EC50 [8] [µg/mL] | EC50 [4] [µg/mL] | EC50 [7] [µg/mL] | EC50 relative to wild type rFluA-20 [6] [fold] | EC50 relative to wild type rFluA-20 [8] [fold] |
| --- | --- | --- | --- | --- | --- | --- | --- | --- | --- | --- | --- | --- |
| rFluA-20 heavy chain mutant C101A (antibody) | > 100 | 0.44 | > 100 | > 100 | 0.13 | 0.11 | > 100 | 0.09 | – | – | – | – |
| rFluA-20 light chain mutant N53A (antibody) | > 100 | 0.16 | > 100 | – | – | 0.06 | – | 0.03 | 0.87 | 0.17 | – | – |
| rFluA-20 light chain mutant Q55A (antibody) | – | – | – | – | – | – | – | – | – | – | > 100 | > 100 |
